# Test results from PMC13226697, “Stress-induced OMA1-mediated cleavage of AIFM1 suppresses cell growth by controlling mitochondrial OXPHOS activity” (The EMBO Journal, 2026).
# Target: the molecule itself
# Assay: native gel or EMSA; CN-PAGE of mitochondria solubilised in 0.5% digitonin, with or without FCCP, immunoblot with AIFM1 antibodies
protein,measurement,value
"AIFM1^TCS/TEV, soluble product of AIFM1^TCS cleaved by IMS-TEV protease (domain or fragment, murine, additional glycine residue at the N-terminus, left from the TEV site ENLYFQG after TEV processing; Murine AIFM1 from V98, the residue after the replaced R97, to the end of A.A.1-612; Expected molecular weight ~60 kDa including the Myc tag; The dimer is an estimate from CN-PAGE; also called membrane-dislocated AIFM1 variant; soluble AIFM1^TCS/TEV; not shown: 3x Myc, C-terminal, kept) GVMGLGLSPEEKQRRAIASATEGGSVPQIRAPSHVPFLLIGGGTAAFAAARSIRARDPGARVLIVSEDPELPYMRPPLSKELWFSDDPNVTKTLQFRQWNGKERSIYFQPPSFYVSAQDLPNIENGGVAVLTGKKVVHLDVRGNMVKLNDGSQITFEKCLIATGGTPRSLSAIDRAGAEVKSRTTLFRKIGDFRALEKISREVKSITVIGGGFLGSELACALGRKSQASGIEVIQLFPEKGNMGKILPQYLSNWTMEKVKREGVKVMPNAIVQSVGVSGGRLLIKLKDGRKVETDHIVTAVGLEPNVELAKTGGLEIDSDFGGFRVNAELQARSNIWVAGDAACFYDIKLGRRRVEHHDHAVVSGRLAGENMTGAAKPYWHQSMFWSDLGPDVGYEAIGLVDSSLPTVGVFAKATAQDNPKSATEQSGTGIRSESETESEASEITIPPSAPAVPQVPVEGEDYGKGVIFYLRDKVVVGIVLWNVFNRMPIARKIIKDGEQHEDLNEVAKLFNIHED",stoichiometry N,2
